# B1: Construct 128 (antibody, human IgG4, kappa)
# heavy: QVTLRESGPALVKPTQTLTLTCTVSGFSLSAYSVNWIRQPPGKALEWLAMIWGDGKIVYNSALKSRLTISKDTSKNQVVLTMTNMDPVDTATYYCAGDGYYPYAMDNWGQGSLVTVSSASTKGPSVFPLAPCSRSTSESTAALGCLVKDYFPEPVTVSWNSGALTSGVHTFPAVLQSSGLYSLSSVVTVPSSSLGTKTYTCNVDHKPSNTKVDKRVESKYGPPCPSCPAPEFLGGPSVFLFPPKPKDTLYITREPEVTCVVVDVSQEDPEVQFNWYVDGVEVHNAKTKPREEQFNSTYRVVSVLTVLHQDWLNGKEYKCKVSNKGLPSSIEKTISKAKGQPREPQVYTLPPSQEEMTKNQVSLTCLVKGFYPSDIAVEWESNGQPENNYKTTPPVLDSDGSFFLYSRLTVDKSRWQEGNVFSCSVMHEALHNHYTQKSLSLSLGK
# light: DIVMTQSPDSLSVSLGERATINCRASKSVDSYGNSFMHWYQQKPGQPPKLLIYLASNLESGVPDRFSGSGSGTDFTLTISSLQAEDVAVYYCQQNNEDPRTFGGGTKVEIKRTVAAPSVFIFPPSDEQLKSGTASVVCLLNNFYPREAKVQWKVDNALQSGNSQESVTEQDSKDSTYSLSSTLTLSKADYEKHKVYACEVTHQGLSSPVTKSFNRGEC
# notes: also called Lebrikizumab-HC; Lebrikizumab-LC
# B2: Construct 132 (antibody, human IgG1, kappa, L234A L235A)
# heavy: EVQLLESGGGLVQPGGSLRLSCAASGFSLNAYSVNWVRQAPGKGLEWLGMIWGDGKIVYNSALKSRLTISKDSSKNTVYLQMNSLRAEDTAVYYCAGDGYYPYAMDNWGQGTTVTVSSASTKGPSVFPLAPSSKSTSGGTAALGCLVKDYFPEPVTVSWNSGALTSGVHTFPAVLQSSGLYSLSSVVTVPSSSLGTQTYICNVNHKPSNTKVDKKVEPKSCDKTHTCPPCPAPEAAGGPSVFLFPPKPKDTLYITREPEVTCVVVDVSHEDPEVKFNWYVDGVEVHNAKTKPREEQYNSTYRVVSVLTVLHQDWLNGKEYKCKVSNKALPAPIEKTISKAKGQPREPQVYTLPPSRDELTKNQVSLTCLVKGFYPSDIAVEWESNGQPENNYKTTPPVLDSDGSFFLYSKLTVDKSRWQQGNVFSCSVMHEALHNHYTQKSLSLSPG
# light: DIQLTQSPSSLSASVGDRVTITCRASKSVDSYGNSFMHWYQQKPGKAPKLLIYLASNLESGVPSRFSGSGSGTDFTLTISSLQPEDFATYYCQQNNEDPRTFGGGTKVEIKRTVAAPSVFIFPPSDEQLKSGTASVVCLLNNFYPREAKVQWKVDNALQSGNSQESVTEQDSKDSTYSLSSTLTLSKADYEKHKVYACEVTHQGLSSPVTKSFNRGEC
# notes: also called HC5; LC6
# B3: Construct 139 (antibody, human IgG4, kappa)
# heavy: EVQLLESGGGLVQPGGSLRLSCAASGFSLNAYSVNWVRQAPGKGLEWLGMIWGDGKIVYNSALKSRLTISKDSSKNTVYLQMNSLRAEDTAVYYCAGDGYYPYAMDNWGQGTTVTVSSASTKGPSVFPLAPCSRSTSESTAALGCLVKDYFPEPVTVSWNSGALTSGVHTFPAVLQSSGLYSLSSVVTVPSSSLGTKTYTCNVDHKPSNTKVDKRVESKYGPPCPSCPAPEFLGGPSVFLFPPKPKDTLMISRTPEVTCVVVDVSQEDPEVQFNWYVDGVEVHNAKTKPREEQFNSTYRVVSVLTVLHQDWLNGKEYKCKVSNKGLPSSIEKTISKAKGQPREPQVYTLPPSQEEMTKNQVSLTCLVKGFYPSDIAVEWESNGQPENNYKTTPPVLDSDGSFFLYSRLTVDKSRWQEGNVFSCSVLHEALHSYTQKSLSLSLGK
# light: DIQLTQSPSSLSASVGDRVTITCRASKSVDSYGNSFMHWYQQKPGKAPKLLIYLASELESGVPSRFSGSGSGTDFTLTISSLQPEDFATYYCQQNNEDPRTFGGGTKVEIKRTVAAPSVFIFPPSDEQLKSGTASVVCLLNNFYPREAKVQWKVDNALQSGNSQESVTEQDSKDSTYSLSSTLTLSKADYEKHKVYACEVTHQGLSSPVTKSFNRGEC
# notes: also called HC5; LC6_m8
# B4: Construct 143 (antibody, human IgG4, kappa)
# heavy: EVQLQESGPGLVKPSETLSLTCTVSGFSLNAYSVNWIRQPPGKGLEWLGMIWGDGKIVYNSALKSRLTISKDSSKNQVSLKLSSVTAADTAVYYCAGDGYYPYAMDNWGQGTTVTVSSASTKGPSVFPLAPCSRSTSESTAALGCLVKDYFPEPVTVSWNSGALTSGVHTFPAVLQSSGLYSLSSVVTVPSSSLGTKTYTCNVDHKPSNTKVDKRVESKYGPPCPSCPAPEFLGGPSVFLFPPKPKDTLMISRTPEVTCVVVDVSQEDPEVQFNWYVDGVEVHNAKTKPREEQFNSTYRVVSVLTVLHQDWLNGKEYKCKVSNKGLPSSIEKTISKAKGQPREPQVYTLPPSQEEMTKNQVSLTCLVKGFYPSDIAVEWESNGQPENNYKTTPPVLDSDGSFFLYSRLTVDKSRWQEGNVFSCSVLHEALHSYTQKSLSLSLGK
# light: DIQLTQSPSSLSASVGDRVTITCRASKSVDSYGNSFMHWYQQKPGKAPKLLIYLASELESGVPSRFSGSGSGTDFTLTISSLQPEDFATYYCQQNNEDPRTFGGGTKVEIKRTVAAPSVFIFPPSDEQLKSGTASVVCLLNNFYPREAKVQWKVDNALQSGNSQESVTEQDSKDSTYSLSSTLTLSKADYEKHKVYACEVTHQGLSSPVTKSFNRGEC
# notes: also called HC1; LC6_m8
# B5: Construct 138 (antibody, human IgG4, kappa)
# heavy: EVQLLESGGGLVQPGGSLRLSCAASGFSLNAYSVNWVRQAPGKGLEWLGMIWGDGKIVYNSALKSRLTISKDSSKNTVYLQMNSLRAEDTAVYYCAGDGYYPYAMDNWGQGTTVTVSSASTKGPSVFPLAPCSRSTSESTAALGCLVKDYFPEPVTVSWNSGALTSGVHTFPAVLQSSGLYSLSSVVTVPSSSLGTKTYTCNVDHKPSNTKVDKRVESKYGPPCPSCPAPEFLGGPSVFLFPPKPKDTLYITREPEVTCVVVDVSQEDPEVQFNWYVDGVEVHNAKTKPREEQFNSTYRVVSVLTVLHQDWLNGKEYKCKVSNKGLPSSIEKTISKAKGQPREPQVYTLPPSQEEMTKNQVSLTCLVKGFYPSDIAVEWESNGQPENNYKTTPPVLDSDGSFFLYSRLTVDKSRWQEGNVFSCSVMHEALHNHYTQKSLSLSLGK
# light: DIQLTQSPSSLSASVGDRVTITCRASKSVDSYGNSFMHWYQQKPGKAPKLLIYLASELESGVPSRFSGSGSGTDFTLTISSLQPEDFATYYCQQNNEDPRTFGGGTKVEIKRTVAAPSVFIFPPSDEQLKSGTASVVCLLNNFYPREAKVQWKVDNALQSGNSQESVTEQDSKDSTYSLSSTLTLSKADYEKHKVYACEVTHQGLSSPVTKSFNRGEC
# notes: also called HC5; LC6_m8
# B6: Construct 140 (antibody, human IgG1, kappa, L234A L235A)
# heavy: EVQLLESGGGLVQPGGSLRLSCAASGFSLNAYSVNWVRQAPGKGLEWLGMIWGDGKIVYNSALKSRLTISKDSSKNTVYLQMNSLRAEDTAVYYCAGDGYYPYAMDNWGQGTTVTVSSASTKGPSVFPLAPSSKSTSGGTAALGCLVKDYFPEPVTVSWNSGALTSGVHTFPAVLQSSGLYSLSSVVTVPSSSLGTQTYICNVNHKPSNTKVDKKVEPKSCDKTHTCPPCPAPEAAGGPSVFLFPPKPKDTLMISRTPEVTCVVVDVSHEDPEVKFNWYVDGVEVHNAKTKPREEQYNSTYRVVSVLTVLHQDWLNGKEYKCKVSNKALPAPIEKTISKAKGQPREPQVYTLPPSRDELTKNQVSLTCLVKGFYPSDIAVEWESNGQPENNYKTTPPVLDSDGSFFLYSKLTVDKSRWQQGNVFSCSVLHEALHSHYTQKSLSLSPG
# light: DIQLTQSPSSLSASVGDRVTITCRASKSVDSYGNSFMHWYQQKPGKAPKLLIYLASELESGVPSRFSGSGSGTDFTLTISSLQPEDFATYYCQQNNEDPRTFGGGTKVEIKRTVAAPSVFIFPPSDEQLKSGTASVVCLLNNFYPREAKVQWKVDNALQSGNSQESVTEQDSKDSTYSLSSTLTLSKADYEKHKVYACEVTHQGLSSPVTKSFNRGEC
# notes: also called HC5; LC6_m8
# B7: Tralokinumab (antibody, V domains shown)
# VH: QVQLVQSGAEVKKPGASVKVSCKASGYTFTNYGLSWVRQAPGQGLEWMGWISANNGDTNYGQEFQGRVTMTTDTSTSTAYMELRSLRSDDTAVYYCARDSSSSWARWFFDLWGRGTLVTVSS
# VL: SYVLTQPPSVSVAPGKTARITCGGNIIGSKLVHWYQQKPGQAPVLVIYDDGDRPSGIPERFSGSNSGNTATLTISRVEAGDEADYYCQVWDTGSDPVVFGGGTKLTVL
# What was measured:
# hIL-13 [1] = target: T1, hIL-13 (human, UniProt P35225 35-146, limits assumed); assay: cell-based or functional assay
# T1 sequence (P35225 other isoform, or with tags, fused parts or gaps limits assumed): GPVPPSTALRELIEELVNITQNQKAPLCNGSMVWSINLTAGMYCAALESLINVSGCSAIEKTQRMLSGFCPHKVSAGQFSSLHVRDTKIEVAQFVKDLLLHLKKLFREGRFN
# [2] = target: T2, Recombinant Cynomolgus IL-13 Protein, His Tag (SINO BIOLOGICAL, Cat. 11057-C07H) (cynomolgus monkey, UniProt Q5I6E4 19-132 (Macaca thibetana entry)); assay: SPR (Biacore 8K), mAb captured on Protein G chip, IL-13 as analyte
# T2 construct: also called Cyno IL-13; cynomolgus monkey IL-13
# T2 chain: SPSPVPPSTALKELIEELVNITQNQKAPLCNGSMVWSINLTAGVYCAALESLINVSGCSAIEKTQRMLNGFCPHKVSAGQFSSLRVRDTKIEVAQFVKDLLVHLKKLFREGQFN
# Protocol: (§1) Samples were injected in a multi-cycle manner over freshly captured mAb, by regenerating the capture surfaces with injection of glycine pH 1.5 for 30 sec at a flow rate of 30 μL/min. The data was processed and analyzed with Biacore Insight Evaluation Software Version 2.0.15.12933 (GE Healthcare) as follows. […] The responses from the two buffer blank injections were then subtracted from the reference subtracted data (2-1) to yield double-referenced data, which were fit to an 1:1 binding model to determine the apparent association (ka) and dissociation rate constants (kd). Their ratio provided the apparent equilibrium dissociation constant or affinity constant (KD=kd/ka).
# [3] = target: T3, Recombinant Human IL-13 Protein, His Tag (Acro Cat. IL3-H52H4) (human, UniProt P35225 35-146); assay: as above
# T3 construct: Bought protein; also called Hu IL-13; not shown: His Tag
# T3 sequence (P35225 other isoform, or with tags, fused parts or gaps limits assumed): as the sequence (P35225 other isoform, or with tags, fused parts or gaps limits assumed) above
# Protocol: as §1
# hIL-13 [4] = target: T1, hIL-13; assay: cell-based or functional assay; remark: listed apart in the source
# hIL-13 [5] = target: T1, hIL-13; assay: cell-based or functional assay; remark: listed apart in the source
# hIL-13 [6] = target: T1, hIL-13; assay: ELISA
# biotinylated hIL-13 = biotinylated hIL-13 (human, UniProt P35225 35-146, limits assumed, biotinylated (site not stated)); assay: FACS; blockade of biotinylated hIL-13 (0.05 ug/mL) binding to HEK293 cells expressing hIL-13Rα1/hIL-4Rα
# Chain of biotinylated hIL-13 (P35225 other isoform, or with tags, fused parts or gaps limits assumed): as the sequence (P35225 other isoform, or with tags, fused parts or gaps limits assumed) above
# Protocol: Briefly, HEK293 previously transduced to stably express both hIL-13Rα and hIL-4Rα were cultured and harvested. Cells were seeded at 200,000 cells in 100 uL per well. Cells were washed and the supernatant was discarded. […] The cells were stained in this mixture at 4° C. for 1 hour. […] Cells were incubated at 4° C. for 1 hour, protected from light. Cells were then washed and the median fluorescence intensity (MFI) of cells in each well were recorded by FACS using a BD FACSCanto II. Subsequent data were analyzed using GraphPad Prism.
Binder,TARC Inhibition IC50 (A549 cells) (hIL-13 [1]) [nM],Kd [2] [nM],Kd [3] [nM],pSTAT6 Inhibition IC50 (HT-29 cells) (hIL-13 [4]) [nM],TF-1 Proliferation Inhibition IC50 (hIL-13 [5]) [nM],Kd (hIL-13 [6]) [nM],IC50 (biotinylated hIL-13) [nM]
B1,1.01,0.298,0.0915,0.28,0.2,0.067,0.95
B2,0.87,0.331,0.135,0.37,0.13,–,0.99
B3,1.02,0.705,0.114,0.28,0.2,–,1.09
B4,0.92,0.685,0.119,0.36,0.17,–,0.74
B5,0.97,0.348,0.108,0.19,0.23,–,1.01
B6,0.94,0.252,0.0475,0.33,0.14,0.02,–
B7,4.14,1.48,0.116,0.41,0.59,–,–

# From US20250129150A1 (APOGEE THERAPEUTICS, published 2025)
